Results on 125 sequences are retold here after the supplement of paper PMC9112550, “Optimization of the antimicrobial peptide Bac7 by deep mutational scanning” (BMC Biology, 2022).

The series concerns Escherichia coli TOP10. The experiment in a line: shrunken log2 fold change of peptide-encoding DNA abundance (4.5 h post-induction vs induction); higher = less antimicrobial activity (less host growth inhibition). To be noted: time post-induction: 4.5 h; library: site-saturation at positions 5, 18, 19, 20.
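Also: peptides expressed intracellularly from a pBAD plasmid library in pooled LB shake-flask culture, induced with 0.3% L-arabinose, DNA abundance read by NGS, three biological replicates, DESeq2 with apeglm shrinkage.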

On to RRIRTRPPRLPRPRPRPNVHPRP, for which the “shrunken log2 fold change” value is -0.637.
The value for RRIRQRPPRLPRPRPRPFYTPRP was -0.589.
RRIRRRPPRLPRPRPRPTNYPRP: the “shrunken log2 fold change” value was -0.0945.
For the sequence RRIRYRPPRLPRPRPRPIYAPRP, the “shrunken log2 fold change” value was -0.461.
As to RRIRFRPPRLPRPRPRPFCDPRP, the “shrunken log2 fold change” value is -0.352.
In the case of RRIRYRPPRLPRPRPRPVTNPRP, the “shrunken log2 fold change” value was -0.015.
Turning to RRIRIRPPRLPRPRPRPKHDPRP, the “shrunken log2 fold change” value is -0.463.
On to RRIRQRPPRLPRPRPRPHPLPRP, for which the “shrunken log2 fold change” value was -0.0478.
Consider RRIRHRPPRLPRPRPRPQFQPRP, for which the “shrunken log2 fold change” value was -0.511.
Consider RRIRERPPRLPRPRPRPKWPPRP, for which the “shrunken log2 fold change” value stood at 0.016.
For the sequence RRIRLRPPRLPRPRPRPMREPRP, the “shrunken log2 fold change” value amounted to 1.25.
Regarding RRIRIRPPRLPRPRPRPQPSPRP, the “shrunken log2 fold change” value was -0.214.
As to RRIRFRPPRLPRPRPRPPDFPRP, the “shrunken log2 fold change” value was -0.195.
In the case of RRIRVRPPRLPRPRPRPITEPRP, the “shrunken log2 fold change” value was -0.0116.
As to RRIRIRPPRLPRPRPRPNEYPRP, the “shrunken log2 fold change” value was -0.182.
For the sequence RRIRIRPPRLPRPRPRPSNYPRP, the “shrunken log2 fold change” value is -0.086.
In the case of RRIRQRPPRLPRPRPRPWRHPRP, the “shrunken log2 fold change” value stood at 0.0151.
As for RRIRERPPRLPRPRPRPNYRPRP, the “shrunken log2 fold change” value was -0.000813.
The value for RRIRWRPPRLPRPRPRPFAVPRP was 0.157; that for RRIRPRPPRLPRPRPRPREYPRP was 0.115; that for RRIRTRPPRLPRPRPRPISCPRP was 0.0135.
As for RRIRCRPPRLPRPRPRPYWRPRP, the “shrunken log2 fold change” value was -0.0756.
Take RRIRYRPPRLPRPRPRPLWEPRP: the “shrunken log2 fold change” value was -0.369.
On to RRIRCRPPRLPRPRPRPPPVPRP, for which the “shrunken log2 fold change” value turned out to be 1.24.
Turning to RRIRKRPPRLPRPRPRPLDHPRP, the “shrunken log2 fold change” value is 0.118.
On to RRIRTRPPRLPRPRPRPSNEPRP, for which the “shrunken log2 fold change” value is -0.34.
Take RRIRERPPRLPRPRPRPDLQPRP: the “shrunken log2 fold change” value worked out at 0.00923.
For RRIRLRPPRLPRPRPRPKDMPRP, the “shrunken log2 fold change” value is -0.0444.
To RRIRLRPPRLPRPRPRPYTWPRP belongs -0.716; to RRIRKRPPRLPRPRPRPTHLPRP, 0.149.
With RRIRVRPPRLPRPRPRPPWNPRP, the “shrunken log2 fold change” value worked out at 0.0143.
Take RRIRGRPPRLPRPRPRPNCQPRP: the “shrunken log2 fold change” value is 0.458.
For RRIRCRPPRLPRPRPRPPYHPRP, the “shrunken log2 fold change” value was -0.334.
With RRIRFRPPRLPRPRPRPYWIPRP, the “shrunken log2 fold change” value was -1.07.
RRIRTRPPRLPRPRPRPMAYPRP: the “shrunken log2 fold change” value came out at 0.0358.
Regarding RRIRGRPPRLPRPRPRPTQNPRP, the “shrunken log2 fold change” value was found to be 0.972.
Regarding RRIRWRPPRLPRPRPRPRHRPRP, the “shrunken log2 fold change” value came out at 0.138.
As for RRIRWRPPRLPRPRPRPMCSPRP, the “shrunken log2 fold change” value is 0.197.
As to RRIRARPPRLPRPRPRPGPMPRP, the “shrunken log2 fold change” value came out at 0.676.
On to RRIRIRPPRLPRPRPRPYWVPRP, for which the “shrunken log2 fold change” value was determined as 0.0603.
As for RRIRDRPPRLPRPRPRPGITPRP, the “shrunken log2 fold change” value was 0.297.
As to RRIRYRPPRLPRPRPRPETCPRP, the “shrunken log2 fold change” value was -0.00674.
To RRIRARPPRLPRPRPRPTDHPRP belongs 0.0934; to RRIRQRPPRLPRPRPRPKAVPRP, -0.00151; to RRIRRRPPRLPRPRPRPRNHPRP, -0.0441.
For the sequence RRIRFRPPRLPRPRPRPAWVPRP, the “shrunken log2 fold change” value was determined as 0.255.
The value for RRIRVRPPRLPRPRPRPWFFPRP was -0.148.
Turning to RRIRPRPPRLPRPRPRPVHVPRP, the “shrunken log2 fold change” value is 0.18.
Turning to RRIRERPPRLPRPRPRPHDYPRP, the “shrunken log2 fold change” value was 0.0456.
To RRIRDRPPRLPRPRPRPQREPRP belongs -0.0375; to RRIRARPPRLPRPRPRPVGEPRP, 0.482.
As for RRIRRRPPRLPRPRPRPLGSPRP, the “shrunken log2 fold change” value came to 0.0898.
As to RRIRCRPPRLPRPRPRPRHMPRP, the “shrunken log2 fold change” value is -0.185.
With RRIRARPPRLPRPRPRPQRTPRP, the “shrunken log2 fold change” value is 0.11.
Consider RRIRLRPPRLPRPRPRPNTKPRP, for which the “shrunken log2 fold change” value is -0.543.
To RRIRARPPRLPRPRPRPNYPPRP belongs -0.144; to RRIRRRPPRLPRPRPRPWTMPRP, -0.257.
As to RRIRIRPPRLPRPRPRPGQDPRP, the “shrunken log2 fold change” value is -0.165.
As to RRIRGRPPRLPRPRPRPGKDPRP, the “shrunken log2 fold change” value was 0.18.
As for RRIRDRPPRLPRPRPRPIRNPRP, the “shrunken log2 fold change” value was determined as 0.011.
The value for RRIRTRPPRLPRPRPRPKMQPRP was 0.384.
Regarding RRIRFRPPRLPRPRPRPFRDPRP, the “shrunken log2 fold change” value was -0.276.
For the sequence RRIRKRPPRLPRPRPRPGPNPRP, the “shrunken log2 fold change” value worked out at 0.795.
RRIRIRPPRLPRPRPRPPKRPRP: the “shrunken log2 fold change” value is 0.0802.
The value for RRIRYRPPRLPRPRPRPFCNPRP was -0.0455; that for RRIRARPPRLPRPRPRPAQSPRP was 0.538; that for RRIRMRPPRLPRPRPRPMCVPRP was 1.45.
The value for RRIRERPPRLPRPRPRPCAVPRP was -0.0406; that for RRIRSRPPRLPRPRPRPTCGPRP was 0.468; that for RRIRVRPPRLPRPRPRPAYYPRP was -0.616.
In the case of RRIRWRPPRLPRPRPRPKNGPRP, the “shrunken log2 fold change” value was -0.156.
Consider RRIRQRPPRLPRPRPRPTTWPRP, for which the “shrunken log2 fold change” value is -0.0695.
On to RRIRGRPPRLPRPRPRPMENPRP, for which the “shrunken log2 fold change” value stood at 0.47.
The value for RRIRKRPPRLPRPRPRPYYDPRP was -0.204; that for RRIRNRPPRLPRPRPRPCGRPRP was -0.0266; that for RRIRMRPPRLPRPRPRPWSEPRP was 0.0897.
The value for RRIRNRPPRLPRPRPRPSIQPRP was -0.623.
Take RRIRKRPPRLPRPRPRPMRCPRP: the “shrunken log2 fold change” value came out at 1.16.
In the case of RRIRPRPPRLPRPRPRPHHQPRP, the “shrunken log2 fold change” value is -0.399.
RRIRGRPPRLPRPRPRPGKYPRP: the “shrunken log2 fold change” value was -0.265.
For RRIRHRPPRLPRPRPRPARDPRP, the “shrunken log2 fold change” value worked out at 0.147.
RRIRPRPPRLPRPRPRPICMPRP: the “shrunken log2 fold change” value is -0.343.
As to RRIRYRPPRLPRPRPRPEMHPRP, the “shrunken log2 fold change” value was found to be 2.42.
As to RRIRQRPPRLPRPRPRPAERPRP, the “shrunken log2 fold change” value stood at 0.179.
As for RRIRLRPPRLPRPRPRPRHIPRP, the “shrunken log2 fold change” value was 1.19.
Turning to RRIRDRPPRLPRPRPRPPEDPRP, the “shrunken log2 fold change” value came out at 0.402.
The value for RRIRERPPRLPRPRPRPVGKPRP was -0.309; that for RRIRTRPPRLPRPRPRPILSPRP was -0.0676; that for RRIRGRPPRLPRPRPRPTWFPRP was 0.281.
Take RRIRIRPPRLPRPRPRPRYSPRP: the “shrunken log2 fold change” value is -0.484.
Turning to RRIRNRPPRLPRPRPRPIQEPRP, the “shrunken log2 fold change” value is -0.0116.
Take RRIRHRPPRLPRPRPRPDTRPRP: the “shrunken log2 fold change” value was -0.0709.
Take RRIRVRPPRLPRPRPRPGWEPRP: the “shrunken log2 fold change” value amounted to 0.123.
RRIRERPPRLPRPRPRPEPNPRP: the “shrunken log2 fold change” value amounted to 0.366.
Consider RRIRWRPPRLPRPRPRPIGVPRP, for which the “shrunken log2 fold change” value came to 0.0389.
On to RRIRIRPPRLPRPRPRPQTKPRP, for which the “shrunken log2 fold change” value worked out at 0.13.
To RRIRMRPPRLPRPRPRPGDAPRP belongs 0.853.
The value for RRIRGRPPRLPRPRPRPCCLPRP was 0.429; that for RRIRVRPPRLPRPRPRPATKPRP was 0.153; that for RRIRGRPPRLPRPRPRPFVCPRP was 0.327.
On to RRIRIRPPRLPRPRPRPNPYPRP, for which the “shrunken log2 fold change” value was -0.659.
As to RRIRQRPPRLPRPRPRPLSEPRP, the “shrunken log2 fold change” value was 0.0232.
Regarding RRIRQRPPRLPRPRPRPHNWPRP, the “shrunken log2 fold change” value is -0.311.
For RRIRRRPPRLPRPRPRPTYTPRP, the “shrunken log2 fold change” value was -0.214.
In the case of RRIRLRPPRLPRPRPRPISYPRP, the “shrunken log2 fold change” value was -0.334.
Consider RRIRQRPPRLPRPRPRPWCGPRP, for which the “shrunken log2 fold change” value is -0.00744.
In the case of RRIRKRPPRLPRPRPRPCCEPRP, the “shrunken log2 fold change” value is 0.638.
In the case of RRIRHRPPRLPRPRPRPVFLPRP, the “shrunken log2 fold change” value is -0.582.
The value for RRIRGRPPRLPRPRPRPRAWPRP was 1.31; that for RRIRDRPPRLPRPRPRPVLHPRP was 0.0367; that for RRIRLRPPRLPRPRPRPGHIPRP was -0.197.
For RRIRERPPRLPRPRPRPAFCPRP, the “shrunken log2 fold change” value is -0.21.
As for RRIRSRPPRLPRPRPRPMWLPRP, the “shrunken log2 fold change” value was found to be 0.0415.
In the case of RRIRLRPPRLPRPRPRPRMPPRP, the “shrunken log2 fold change” value came to 0.352.
With RRIRGRPPRLPRPRPRPYWEPRP, the “shrunken log2 fold change” value is -0.0842.
Take RRIRWRPPRLPRPRPRPTSHPRP: the “shrunken log2 fold change” value is -0.26.
As to RRIRMRPPRLPRPRPRPRHNPRP, the “shrunken log2 fold change” value is -0.0227.
As to RRIRSRPPRLPRPRPRPMKEPRP, the “shrunken log2 fold change” value was -0.338.
On to RRIRGRPPRLPRPRPRPTIIPRP, for which the “shrunken log2 fold change” value is -0.026.
Take RRIRARPPRLPRPRPRPYSVPRP: the “shrunken log2 fold change” value was -0.248.
In the case of RRIRYRPPRLPRPRPRPFMMPRP, the “shrunken log2 fold change” value was -0.108.
Turning to RRIRIRPPRLPRPRPRPTSKPRP, the “shrunken log2 fold change” value was -0.207.
The value for RRIRRRPPRLPRPRPRPRALPRP was 0.482; that for RRIRKRPPRLPRPRPRPQKEPRP was -0.00503; that for RRIRFRPPRLPRPRPRPHSDPRP was -0.129.
